The values below come from paper PMC11721465 (Molecular Neurodegeneration, 2025).

Common to all, as to conditions: both partners purified
In test [1] the target is T1, TDP-43, full length, soluble oligomers (human, UniProt Q13148 1-414).
T1 construct: TDP-43, human, full length; oligomers of unstated size; also called oligomeric TDP-43; TDP-43 oligomers; source: E coli, purified from insoluble inclusion bodies, solubilized in 6 M guanidine, oligomers made by 1:100 dilution
Description: BLI; biotinylated TREM2 WT or variant immobilised on SA biosensors; TDP-43 oligomers 0.625–10 µM; PBS with 0.1% BSA and 0.005% Tween-20; biphasic curves, only qualitatively evaluated. In general terms: Biolayer interferometry detects binding as a change in optical thickness at a sensor tip.

Test [2] has as its target T2, oligomeric amyloid beta 42 (UniProt P05067 672-713).
T2 construct: amyloid beta 42 (Aβ42), cut product of the amyloid precursor protein; oligomers of unstated size; also called oAβ42; Aβ42 oligomers; source: bought: Anaspec; oligomers made from HFIP/DMSO-treated peptide in PBS, 37 °C, 3 h
Description: not stated; KD of oAβ42 and TREM2 referred to Supplemental Fig. 9; method not given.

The target of another test is T3, Human IL-34 (19–241) (human, UniProt Q6ZMJ4 19-241).
T3 construct: IL-34, human, residues 19-241; source: Expi293F cells, secreted, purified from the media using NiNTA chromatography
T3 sequence (looked up): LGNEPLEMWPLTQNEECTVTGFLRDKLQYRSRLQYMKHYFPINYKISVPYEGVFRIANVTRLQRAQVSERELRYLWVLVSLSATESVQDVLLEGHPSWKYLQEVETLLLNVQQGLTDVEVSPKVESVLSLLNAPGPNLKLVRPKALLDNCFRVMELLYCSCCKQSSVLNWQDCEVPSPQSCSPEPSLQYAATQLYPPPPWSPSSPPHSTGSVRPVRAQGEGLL
Description: BLI; biotinylated TREM2 WT or variant immobilised on SA biosensors; IL-34 62.5–1000 nM; PBS with 0.1% BSA and 0.005% Tween-20; 1:1 kinetic fits.

The next test deals with T4, apolipoprotein E3 (UniProt P02649 19-317).
T4 construct: also called apoE3
Description: BLI; biotinylated TREM2 WT or variant immobilised on streptavidin (SA) biosensors; apoE in solution (apoE4 0.012–50 µM); PBS with 0.1% BSA and 0.005% Tween-20; double-reference subtraction; steady-state analysis.

T1 sequence (Q13148 whole entry): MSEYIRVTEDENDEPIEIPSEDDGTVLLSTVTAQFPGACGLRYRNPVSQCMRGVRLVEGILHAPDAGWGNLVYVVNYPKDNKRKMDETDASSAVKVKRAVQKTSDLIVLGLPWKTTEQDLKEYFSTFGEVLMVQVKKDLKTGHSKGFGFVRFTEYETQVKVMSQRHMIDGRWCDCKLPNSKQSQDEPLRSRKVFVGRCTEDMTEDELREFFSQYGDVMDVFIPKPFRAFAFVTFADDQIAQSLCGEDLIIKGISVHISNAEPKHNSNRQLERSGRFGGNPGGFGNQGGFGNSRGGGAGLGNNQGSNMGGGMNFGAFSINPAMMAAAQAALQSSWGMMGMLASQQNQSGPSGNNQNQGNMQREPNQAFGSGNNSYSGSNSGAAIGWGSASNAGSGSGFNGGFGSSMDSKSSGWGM
T4 sequence (P02649 19-317): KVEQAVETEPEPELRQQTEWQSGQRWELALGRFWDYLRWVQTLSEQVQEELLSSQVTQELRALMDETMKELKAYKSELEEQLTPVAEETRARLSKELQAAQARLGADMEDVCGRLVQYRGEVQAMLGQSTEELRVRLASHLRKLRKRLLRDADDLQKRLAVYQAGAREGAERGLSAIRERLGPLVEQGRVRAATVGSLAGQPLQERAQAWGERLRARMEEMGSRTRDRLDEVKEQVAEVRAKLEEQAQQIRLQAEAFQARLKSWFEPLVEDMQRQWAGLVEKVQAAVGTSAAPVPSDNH

B1: TREM2 (19–134) WT, biotinylated (domain or fragment, human, UniProt Q9NZC2 19-134, looked up)
chain: HNTTVFQGVAGQSLQVSCPYDSMKHWGRRKAWCRQLGEKGPCQRVVSTHNLWLLSFLRRWNGSTAITDDTLGGTLTITLRNLQPHDAGLYQCQSLHGSEADTLRKVLVEVLADPLD
modifications: biotin on the C-terminal BirA biotinylation sequence (enzymatic, BirA)
notes: glycosylated (mammalian cells); also called TREM2 WT; source: Expi293F cells, purified, enzymatically biotinylated using BirA
The term Kd denotes the free concentration of one partner at which half of the binding sites on the other are occupied at equilibrium, for simple one-to-one binding. Read a low Kd as higher affinity. Turning to B1, the binding result in test [1] is “binds”. Besides, the Kd in test [2] was determined as 42 nM; in the test with Human IL-34 (19–241), 16.5 ± 0.2 nM.

B2: TREM2 (19–134) R46D, biotinylated (domain or fragment, human, UniProt Q9NZC2 19-134, looked up)
chain: HNTTVFQGVAGQSLQVSCPYDSMKHWGDRKAWCRQLGEKGPCQRVVSTHNLWLLSFLRRWNGSTAITDDTLGGTLTITLRNLQPHDAGLYQCQSLHGSEADTLRKVLVEVLADPLD
modifications: biotin on the C-terminal BirA biotinylation sequence (enzymatic, BirA)
notes: source: Expi293F cells, purified, enzymatically biotinylated using BirA
With B2, the Kd with Human IL-34 (19–241) came to 18 ± 0.3 nM.

B3: TREM2 (19–134) T85D, biotinylated (domain or fragment, human, UniProt Q9NZC2 19-134, looked up)
chain: HNTTVFQGVAGQSLQVSCPYDSMKHWGRRKAWCRQLGEKGPCQRVVSTHNLWLLSFLRRWNGSTAIDDDTLGGTLTITLRNLQPHDAGLYQCQSLHGSEADTLRKVLVEVLADPLD
modifications: biotin on the C-terminal BirA biotinylation sequence (enzymatic, BirA)
notes: as for B2
On to B3, for which, in the test with Human IL-34 (19–241), the dissociation constant (Kd) worked out at 21.5 ± 0.6 nM.

B4: TREM2 (19–134) R47H, biotinylated (domain or fragment, human, UniProt Q9NZC2 19-134, looked up)
chain: HNTTVFQGVAGQSLQVSCPYDSMKHWGRHKAWCRQLGEKGPCQRVVSTHNLWLLSFLRRWNGSTAITDDTLGGTLTITLRNLQPHDAGLYQCQSLHGSEADTLRKVLVEVLADPLD
modifications: biotin on the C-terminal BirA biotinylation sequence (enzymatic, BirA)
notes: AD risk variant that occurs in nature; source: Expi293F cells, purified, enzymatically biotinylated using BirA
Regarding B4, the binding result in test [1] was “binds”. For the same molecule, the dissociation constant (Kd) with Human IL-34 (19–241) stood at 79.8 ± 2.4 nM.

B5: TREM2 (19–134) R77D, biotinylated (domain or fragment, human, UniProt Q9NZC2 19-134, looked up)
chain: HNTTVFQGVAGQSLQVSCPYDSMKHWGRRKAWCRQLGEKGPCQRVVSTHNLWLLSFLRDWNGSTAITDDTLGGTLTITLRNLQPHDAGLYQCQSLHGSEADTLRKVLVEVLADPLD
modifications: biotin on the C-terminal BirA biotinylation sequence (enzymatic, BirA)
notes: as for B2
Molecule B5 came in with a Kd in the test with Human IL-34 (19–241) of 114 ± 4 nM.

B6: TREM2 (19–134) R122E, biotinylated (domain or fragment, human, UniProt Q9NZC2 19-134, looked up)
chain: HNTTVFQGVAGQSLQVSCPYDSMKHWGRRKAWCRQLGEKGPCQRVVSTHNLWLLSFLRRWNGSTAITDDTLGGTLTITLRNLQPHDAGLYQCQSLHGSEADTLEKVLVEVLADPLD
modifications: biotin on the C-terminal BirA biotinylation sequence (enzymatic, BirA)
notes: as for B2
On to B6, for which, in the test with Human IL-34 (19–241), binding was characterised by a dissociation constant (Kd) of 29.4 ± 0.4 nM. Compared with the last molecule, the Kd is about 3.9-fold lower.

B7: TREM2 (19–134) W44D/L69D/L71D, biotinylated (domain or fragment, human, UniProt Q9NZC2 19-134, looked up)
chain: HNTTVFQGVAGQSLQVSCPYDSMKHDGRRKAWCRQLGEKGPCQRVVSTHNDWDLSFLRRWNGSTAITDDTLGGTLTITLRNLQPHDAGLYQCQSLHGSEADTLRKVLVEVLADPLD
modifications: biotin on the C-terminal BirA biotinylation sequence (enzymatic, BirA)
notes: as for B2
Turning to B7, the dissociation constant (Kd) with Human IL-34 (19–241) is 25.8 ± 0.3 nM.

B8: TREM2 (19–134) L75D, biotinylated (domain or fragment, human, UniProt Q9NZC2 19-134, looked up)
chain: HNTTVFQGVAGQSLQVSCPYDSMKHWGRRKAWCRQLGEKGPCQRVVSTHNLWLLSFDRRWNGSTAITDDTLGGTLTITLRNLQPHDAGLYQCQSLHGSEADTLRKVLVEVLADPLD
modifications: biotin on the C-terminal BirA biotinylation sequence (enzymatic, BirA)
notes: as for B2
As for B8, the Kd with Human IL-34 (19–241) amounted to 36.6 ± 0.9 nM.

B9: TREM2 (19–134) T96K, biotinylated (domain or fragment, human, UniProt Q9NZC2 19-134, looked up)
chain: HNTTVFQGVAGQSLQVSCPYDSMKHWGRRKAWCRQLGEKGPCQRVVSTHNLWLLSFLRRWNGSTAITDDTLGGTLTIKLRNLQPHDAGLYQCQSLHGSEADTLRKVLVEVLADPLD
modifications: biotin on the C-terminal BirA biotinylation sequence (enzymatic, BirA)
notes: as for B4
B9 displayed a dissociation constant Kd with Human IL-34 (19–241) of 23.7 ± 0.4 nM.

B10: TREM2 (19–134) L69D/L71D, biotinylated (domain or fragment, human, UniProt Q9NZC2 19-134, looked up)
chain: HNTTVFQGVAGQSLQVSCPYDSMKHWGRRKAWCRQLGEKGPCQRVVSTHNDWDLSFLRRWNGSTAITDDTLGGTLTITLRNLQPHDAGLYQCQSLHGSEADTLRKVLVEVLADPLD
modifications: biotin on the C-terminal BirA biotinylation sequence (enzymatic, BirA)
notes: as for B2
In the test with Human IL-34 (19–241), B10 yielded a Kd of 20.2 ± 0.3 nM.

B11: TREM2 (19–134) D87N, biotinylated (domain or fragment, human, UniProt Q9NZC2 19-134, looked up)
chain: HNTTVFQGVAGQSLQVSCPYDSMKHWGRRKAWCRQLGEKGPCQRVVSTHNLWLLSFLRRWNGSTAITDNTLGGTLTITLRNLQPHDAGLYQCQSLHGSEADTLRKVLVEVLADPLD
modifications: biotin on the C-terminal BirA biotinylation sequence (enzymatic, BirA)
notes: as for B4
Regarding B11, the binding result in test [1] is on record as “binds”. Besides, the Kd is 28.4 ± 0.5 nM with Human IL-34 (19–241) and 79 nM with apolipoprotein E3.

B12: TREM2 (19–134) R62H, biotinylated (domain or fragment, human, UniProt Q9NZC2 19-134, looked up)
chain: HNTTVFQGVAGQSLQVSCPYDSMKHWGRRKAWCRQLGEKGPCQHVVSTHNLWLLSFLRRWNGSTAITDDTLGGTLTITLRNLQPHDAGLYQCQSLHGSEADTLRKVLVEVLADPLD
modifications: biotin on the C-terminal BirA biotinylation sequence (enzymatic, BirA)
notes: as for B4
As for B12, the binding result in test [1] is recorded as “binds”. Binding with Human IL-34 (19–241) was put at a Kd of 75 nM.

B13: TREM2 (19–134) R122D/K123D, biotinylated (domain or fragment, human, UniProt Q9NZC2 19-134, looked up)
chain: HNTTVFQGVAGQSLQVSCPYDSMKHWGRRKAWCRQLGEKGPCQRVVSTHNLWLLSFLRRWNGSTAITDDTLGGTLTITLRNLQPHDAGLYQCQSLHGSEADTLDDVLVEVLADPLD
modifications: biotin on the C-terminal BirA biotinylation sequence (enzymatic, BirA)
notes: as for B2
In turn, B13 registered a dissociation constant (Kd) with Human IL-34 (19–241) of 18.5 ± 0.3 nM.

B14: TREM2 (19–134) W78D, biotinylated (domain or fragment, human, UniProt Q9NZC2 19-134, looked up)
chain: HNTTVFQGVAGQSLQVSCPYDSMKHWGRRKAWCRQLGEKGPCQRVVSTHNLWLLSFLRRDNGSTAITDDTLGGTLTITLRNLQPHDAGLYQCQSLHGSEADTLRKVLVEVLADPLD
modifications: biotin on the C-terminal BirA biotinylation sequence (enzymatic, BirA)
notes: as for B2
Molecule B14 registered an equilibrium dissociation constant (Kd) with Human IL-34 (19–241) of 17.2 ± 0.4 nM. The Kd values of the last two molecules are within 1.5-fold of each other.
